For assay [1], the target named is T1, human IL4Rα expressed on 293F-IL4Rα cell surface (human, UniProt P24394 26-825).
T1 construct: whole, on cells; also called human IL4Rα-expressing cells; cell surface IL4R
The assay can be described thus: flow cytometry on 293F-IL4Rα cells, PE anti-human IgG Fc. The protocol: Cells were washed twice with FACS buffer, and added with 100 μL/well R-Phycoerythrin AffiniPure Goat Anti-Human IgG, Fey fragment specific (1:1000 dilution in FACS buffer, Jackson Immunoresearch, Cat #109-115-098). Following an incubation of 40 minutes at 4° C. in dark, cells were washed three times and resuspended in FACS buffer. Fluorescence was measured using a Becton Dickinson FACS Canto II-HTS equipment. Data was analyzed using Graphpad Prism and EC₅₀ values were reported.

The target of assay [2] is T2, recombinant human TSLP-his (human, UniProt Q969D9 29-159, biotin-labeled in the ELISAs).
T2 construct: In-house made; not shown: His tag at the C-terminus
Put plainly: SPR Biacore; TSLP-his amine-coupled to CM5 chip, antibody as analyte; 1:1 Langmuir fit. The protocol: Un-reacted moieties on the biosensor surface were blocked with ethanolamine. Then, serially diluted purified bispecific antibodies and the controls (2-fold serial dilution in HBS-EP⁺ buffer starting at 100 nM) were respectively flowed onto the chip at a flow rate of 30 μL/min. The antigen-antibody association kinetics was followed for 4 minutes and the dissociation kinetics was followed for 13 minutes.

Assay [3] concerns the target T1, human IL4Rα expressed on 293F-IL4Rα …. The assay can be described thus: cell-based blocking FACS on 293F-IL4Rα cells; blocked ligand biotin human IL4. The protocol:
Then, 1×10⁵ cells per well were incubated in 96 well-plates in 100 μL of serially diluted bispecific antibodies, the positive controls or negative control (starting at 100 nM with a 5-fold serial dilution) in FACS buffer for 40 minutes on ice. […] The plates were washed twice with FACS buffer, and then added and incubated for 40 minutes at 4° C. in dark with 100 μL/well R-Phycoerythrin Streptavidin (1:500 dilution in FACS buffer, Jackson Immunoresearch, Cat #016-110-084). Cells were washed twice and resuspended in FACS buffer. Fluorescence was measured using a Becton Dickinson FACS Canto II-HTS equipment. Data was analyzed using Graphpad Prism and IC₅₀ values were reported.

Assay [4] addresses T3, recombinant human IL4Rα-his (human, UniProt P24394 26-231, limits assumed, biotin-labeled in the capture ELISA).
T3 construct: In-house made; not shown: His tag at the C-terminus
The assay can be described thus: capture ELISA: antibody captured on anti-human IgG Fc F(ab')2, biotin human IL4Rα-his, SA-HRP. The protocol: Briefly, 96-well plates were coated with 2 μg/mL AffiniPure F(ab′)₂ Fragment Goat Anti-Human IgG, Fey fragment specific (Jackson Immuno Research, Cat #109-006-008) in PBS, 100 μL/well, overnight at 4° C. Plates were washed once with wash buffer (PBS+0.05% w/v Tween-20, PBST) and then blocked with 200 μL/well blocking buffer (5% w/v non-fatty milk in PBST) for 2 hours at 37° C. […] After a final wash, plates were incubated with 100 μL/well ELISA substrate TMB (Innoreagents, Cat #TMB-S-002). The reaction was stopped in 10 minutes at 25° C. with 50 μL/well 1M H₂SO₄, and the absorbance was read on a microplate reader using dual wavelength mode with 450 nm for TMB and 630 nm as the reference wavelength. Data was analyzed using Graphpad Prism and EC₅₀ values were reported.

The target of assay [5] is T3, recombinant human IL4Rα-his. Put plainly: SPR Biacore T200; antibody captured on anti-human IgG CM5 chip, IL4Rα-his as analyte; 1:1 Langmuir fit. As to the method: The goat anti-human IgG (GE healthcare, Cat #BR100839, Human Antibody Capture Kit) was covalently linked to a CM5 chip (carboxy methyl dextran coated chip) via primary amines, using a standard amine coupling kit provided by Biacore (GE healthcare, Pittsburgh, PA, USA). Un-reacted moieties on the biosensor surface were blocked with ethanolamine. Then, purified bispecific antibodies of the disclosure at the concentration of 66.67 nM and the controls at 10 μg/mL, were flowed onto the chip at a flow rate of 10 μL/min. Then, serially diluted recombinant human IL4Rα-his (in house made, IL4Rα of SEQ ID NO: 33 with His tag at C-terminus) in HBS EP buffer (provided by Biacore) was flowed onto the chip at a flow rate of 30 μL/min. The association and dissociation curves were fit to a 1:1 Langmuir binding model using BIAcore evaluation software.

The target is the same in assay [6]. Put plainly: competitive ELISA: coated human IL4Rα-his, antibody titrated; blocked ligand biotin human IL4. The protocol:
Briefly, 100 μL human IL4Rα-his proteins (prepared in-house, IL4Rα of SEQ ID NO: 33 with C-terminal His tag) were coated on 96-well micro plates at 2 μg/mL in PBS overnight at 4° C. The next day, plates were washed with wash buffer (PBS+0.05% w/v Tween-20, PBST), and blocked with 5% w/v non-fatty milk in PBST for 2 hours at 37° C. Plates were then washed again using wash buffer. Serially diluted bispecific antibodies or the controls (starting at 100 nM with a 5-fold serial dilution) in 2.5% w/v non-fatty milk in PBST, 100 μL per well, were added to the IL4Rα bound plates, and incubated at 37° C. for 40 minutes. […] Plates were washed again using wash buffer. Thereafter, the plates were added with 100 μL/well of streptavidin conjugated HRP (1:10000 dilution in PBST buffer, Jackson Immunoresearch, Cat #016-030-084) and incubated for 40 minutes at 37° C. Plates were washed again using wash buffer. Finally, TMB was added and the reaction was stopped using 1M H₂SO₄, and the absorbance was read at 450 nm. Data was analyzed using Graphpad Prism and IC₅₀ values were reported.

For assay [7] the target is unchanged. Put plainly: dual-binding ELISA: coated human IL4Rα-his, antibody titrated, detection with biotin human TSLP-his and SA-HRP; signal needs both antigens bound. As to the method:
For the dual-binding ELISA, 96-well ELISA plates were firstly coated with 100 μL 1 μg/mL human IL4Rα-his protein (IL4Rα of SEQ ID NO: 33 with His tag at C terminus, prepared in-house) in PBS overnight at 4° C. ELISA plates were washed 4 times with wash buffer (PBS+0.05% Tween-20, PBST) and then blocked with 200 μL/well blocking buffer (5% w/v non-fatty milk in PBST) for 2 hours at 37° C. […] ELISA plates were washed again and incubated with SA-HRP (100 μl/well) for 40 minutes at 37° C. After the final wash, 100 μL/well TMB (Innoreagents) was added. The reaction was stopped 15 minutes later at room temperature with 50 μL/well 1M H₂SO₄, and the absorbance was read on a microplate reader using dual wavelength mode with 450 nm for TMB and 630 nm as the reference wavelength. The OD (450-630) values were plotted against antibody concentration. Data was analyzed using Graphpad Prism and EC₅₀ values were reported.

Assay [8] has as its target T4, biotin-labeled human TSLP-Fc (human, biotin-labeled).
T4 construct: also called TSLP-Fc protein; TSLP-Fc-biotin
The assay can be described thus: cell-based blocking FACS: antibody pre-mixed with biotin human TSLP-Fc; blocked binding to cell-surface TSLPR/IL7Ra on HEK293T-TSLPR/IL7R/STAT5-Luc 5C5 cells. As to the method: The cells were prepared following the instruction of lipofectamine 3000 transfection reagent (Thermo Fisher), by transfecting HEK293T cells (ATCC® CRL-11268) with pCMV-T-P plasmids inserted with TSLPR coding sequence between EcoRI and Xba1 sites and pCMV3-SP plasmids inserted with IL7Ra coding sequence between HindIII and Xba1 sites as well as pGL4.52 [luc2P/STAT5RE/Hygro](Promega).
The cells were harvested from cell culture flasks, washed twice and re-suspended in phosphate buffered saline (PBS) containing 2% v/v Fetal Bovine Serum (FACS buffer). […] Cells were washed twice with FACS buffer, and then added and incubated with 100 μL/well R-Phycoerythrin Streptavidin (1:500 dilution in FACS buffer, Jackson Immunoresearch, Cat #016-110-084) for 40 minutes at 4° C. in dark. Cells were washed twice and re-suspended in FACS buffer. Fluorescence was measured using a Becton Dickinson FACS Canto II-HTS equipment. Data was analyzed using Graphpad Prism and IC₅₀ values were reported.

Data on one molecule can be found in patent US20260109758A1 (BIOSION, published 2026).

B1: BSI-502-006 (bispecific antibody, human IgG1, kappa)
heavy: QVQLVQSGAEVKKPGASVKVSCKASGYTFTTYWMHWVRQAPGQGLEWMGVIDPSDSDTTYNQKFKGRVTMTRDTSTSTVYMELSSLRSEDTAVYYCTRSLDGYYDYWGQGTLVTVSSASTKGPSVFPLAPSSKSTSGGTAALGCLVKDYFPEPVTVSWNSGALTSGVHTFPAVLQSSGLYSLSSVVTVPSSSLGTQTYICNVNHKPSNTKVDKKVEPKSCDKTHTCPPCPAPEAQGGPSVFLFPPKPKDTLYITREPEVTCVVVDVSHEDPEVKFNWYVDGVEVHNAKTKPREEQYNSTYRVVSVLTVLHQDWLNGKEYKCQVSNKALPAPIEKTISKAKGQPREPQVYTLPPSRDELTKNQVSLTCLVKGFYPSDIAVEWESNGQPENNYKTTPPVLDSDGSFFLYSKLTVDKSRWQQGNVFSCSVMHEALHNHYTQKSLSLSPGKGGGGSGGGGSDIQMTQSPSSLSASVGDRVTITCRTSENIYSYLAWYQQKPGKAPKFLVYNAKTLAEGVPSRFSGSGSGTDFTLTISSLQPEDFATYYCQHYYGPPTWTFGQGTKVEIKGGGGSGGGGSGGGGSGGGGSEVQLVESGGGLVQPGGSLRLSCAASGFTFSTYGMSWVRQAPGKGLVWVATINSNGGSTSYPDSVKGRFTISRDNAKNTLYLQMNSLRAEDTAVYYCARFFRFRNAMDYWGQGTLVTVSS
light: DIQMTQSPSSLSASVGDRVTITCRPTENIYSYLAWYQQKPGKAPKLLIYFARTLAEGVPSRFSGSGSGTDFTLTISSLQPEDFATYYCQHHYGTPWTFGGGTKVEIKRTVAAPSVFIFPPSDEQLKSGTASVVCLLNNFYPREAKVQWKVDNALQSGNSQESVTEQDSKDSTYSLSSTLTLSKADYEKHKVYACEVTHQGLSSPVTKSFNRGEC
notes: hu1C5F12E9-V8 IgG with an anti-IL4R scFv (VL-VH) at the C-terminus of the heavy chain; AQQ and YTE already stand in the entry
B1: the EC50 is 0.458 nM in assay [1], 0.182 nM in assay [4] and 0.104 nM in assay [7]. Further, the Kd in assay [2] is < 0.0141 nM; in assay [5], 4.88 nM. In addition, the koff in assay [2] is < 1e-05 s⁻¹; in assay [5] it was 0.000244 s⁻¹. For the same molecule, the results for the on-rate (kon) in assay [2] and in assay [5] were 710000 M⁻¹ s⁻¹ and 50000 M⁻¹ s⁻¹, respectively. Further, the IC50 in assay [3] is 0.326 nM; in assay [6] it was 0.38 nM; in assay [8], 1.13 nM.
